Assays:
anti-PTK7 antibody Ab181 = target: T1, anti-PTK7 antibody Ab181; experiment: phage display selection of peptide binders of Ab181 (Screen 2, XnCXnCXn library)
T1 construct: Unmasked parent IgG1kappa; also called Ab181 IgG1kappa

[1] = target: T2, PTK7 on PTK7 positive cell line SaOS-2 (osteosarcoma) (UniProt Q13308 31-1070, limits assumed); experiment: cell-based or functional assay
T2 sequence (looked up): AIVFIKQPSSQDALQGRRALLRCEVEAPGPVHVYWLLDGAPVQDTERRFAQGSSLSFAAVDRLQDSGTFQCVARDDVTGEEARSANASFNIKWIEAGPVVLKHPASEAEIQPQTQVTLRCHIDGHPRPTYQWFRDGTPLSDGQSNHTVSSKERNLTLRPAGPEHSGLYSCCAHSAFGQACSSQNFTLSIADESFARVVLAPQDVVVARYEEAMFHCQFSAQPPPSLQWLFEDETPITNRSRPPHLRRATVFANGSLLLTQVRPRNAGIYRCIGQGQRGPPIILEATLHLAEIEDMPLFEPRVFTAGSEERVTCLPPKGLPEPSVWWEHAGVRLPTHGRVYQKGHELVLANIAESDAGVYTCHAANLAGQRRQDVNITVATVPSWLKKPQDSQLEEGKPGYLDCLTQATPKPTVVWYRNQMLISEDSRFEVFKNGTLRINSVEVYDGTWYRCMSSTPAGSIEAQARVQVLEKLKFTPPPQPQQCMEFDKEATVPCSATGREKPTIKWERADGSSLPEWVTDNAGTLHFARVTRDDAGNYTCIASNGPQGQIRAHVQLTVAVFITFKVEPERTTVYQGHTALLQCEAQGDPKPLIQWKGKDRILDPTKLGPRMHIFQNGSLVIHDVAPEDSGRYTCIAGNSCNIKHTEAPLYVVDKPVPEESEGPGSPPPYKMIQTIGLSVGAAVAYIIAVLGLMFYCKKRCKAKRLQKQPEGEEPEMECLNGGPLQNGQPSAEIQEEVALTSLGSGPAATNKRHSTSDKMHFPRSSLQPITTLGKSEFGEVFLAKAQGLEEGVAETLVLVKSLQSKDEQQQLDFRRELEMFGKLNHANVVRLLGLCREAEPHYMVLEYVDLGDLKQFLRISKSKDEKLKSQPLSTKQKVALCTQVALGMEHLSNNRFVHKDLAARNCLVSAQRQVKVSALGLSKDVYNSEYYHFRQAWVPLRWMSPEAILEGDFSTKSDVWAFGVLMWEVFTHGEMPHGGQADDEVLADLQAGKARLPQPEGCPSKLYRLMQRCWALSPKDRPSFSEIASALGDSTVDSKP

[2] = target: T2, PTK7 on PTK7 positive cell line SaOS-2 …; experiment: cell-based or functional assay; remark: listed apart in the source
[3] = target: T3, recombinant human PTK7.Fc (R and D Systems, catalog #9799-TK) (human, UniProt Q13308 31-704, limits assumed); experiment: flow cytometry, percent of CAR T cells positive for 10 ug/mL PTK7.Fc
T3 construct: Bought reagent; also called soluble recombinant human PTK7.Fc; soluble antigen PTK7; not shown: Fc part of the bought fusion (detected with anti-human Fc)
T3 sequence (looked up): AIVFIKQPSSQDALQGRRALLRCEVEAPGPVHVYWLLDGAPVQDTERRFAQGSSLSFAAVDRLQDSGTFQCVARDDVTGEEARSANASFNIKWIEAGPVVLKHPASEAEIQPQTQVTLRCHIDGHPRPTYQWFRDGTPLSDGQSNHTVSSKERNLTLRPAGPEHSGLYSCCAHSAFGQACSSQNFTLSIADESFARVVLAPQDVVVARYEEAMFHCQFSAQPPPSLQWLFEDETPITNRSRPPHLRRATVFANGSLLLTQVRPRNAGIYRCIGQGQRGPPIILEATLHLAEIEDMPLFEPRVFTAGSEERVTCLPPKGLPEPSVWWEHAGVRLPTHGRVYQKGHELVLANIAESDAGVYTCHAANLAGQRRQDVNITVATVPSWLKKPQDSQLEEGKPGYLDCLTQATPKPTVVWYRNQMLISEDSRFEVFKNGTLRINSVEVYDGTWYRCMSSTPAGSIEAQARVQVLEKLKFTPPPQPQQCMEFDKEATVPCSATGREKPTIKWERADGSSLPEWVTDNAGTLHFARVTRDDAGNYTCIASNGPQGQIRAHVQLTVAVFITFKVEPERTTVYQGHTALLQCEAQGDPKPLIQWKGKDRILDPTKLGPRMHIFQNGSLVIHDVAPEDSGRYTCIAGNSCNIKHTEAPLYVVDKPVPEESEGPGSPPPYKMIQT
Procedure: In addition to detecting surface CAR expression, the ability of the CAR T cells and masked CAR T cells to detect target antigen was also determined. Live CAR T cells were gated by their forward scatter (FSC) and side scatter (SSC) profiles, and with DAPI dye (Invitrogen, catalog #: D3571). The cells were then stained with 10 μg/mL recombinant human PTK7.Fc (R and D Systems, catalog #9799-TK Lot DHMCO219041) as described above in Example 3, and with mouse anti-human.Fc conjugated to APC (Biolegend cat #409305) as secondary antibody for detection (FIG. 3).

B1: mask peptide M4 (peptide)
peptide: CTFPNTTMQRTFC
notes: Found by phage display (Screen 2); in the masked constructs preceded by QG and fused through a cleavable linker
binding result (anti-PTK7 antibody Ab181): binds

B2: CTX181 (unmasked CAR) (other)
chain: QVQLVESGGGVVQPGRSLRLSCAASGFTFSSYGMHWVRQAPGKGLEWVAVIWDDGSNKYYVDSVKGRFTISRDNSKNTLYLQMNSLRAEDTAVYYCARDDYYGSGSFNSYYGTDVWGQGTTVTVSSGGGGSGGGGSGGGGSEIVLTQSPATLSLSPGERATLSCRASQSVSIYLAWYQQKPGQAPRLLIYDASNRATGIPARFSGSGSGTDFTLTISSLEPEDFAVYYCQQRSNWPPFTFGPGTKVDIKSAAAFVPVFLPAKPTTTPAPRPPTPAPTIASQPLSLRPEACRPAAGGAVHTRGLDFACDIYIWAPLAGTCGVLLLSLVITLYCNHRNRKRGRKKLLYIFKQPFMRPVQTTQEEDGCSCRFPEEEEGGCELRVKFSRSADAPAYQQGQNQLYNELNLGRREEYDVLDKRRGRDPEMGGKPRRKNPQEGLYNELQKDKMAEAYSEIGMKGERRRGKGHDGLYQGLSTATKDTYDALHMQALPPR
notes: Chimeric antigen receptor (Ab181 scFv) on the surface of TRAC-/B2M- human T cells; entry without signal peptide; also called anti-PTK7 CAR; unmasked CAR CTX181
% Cell killing at E:T = 1:0.5 [1]: 97.1% | % Cell killing at E:T = 1:1 [1]: 96.6% | IFNγ (pg/mL) at E:T = 1:0.5 [2]: 22300 pg/mL | IFNγ (pg/mL) at E:T = 1:1 [2]: 34900 pg/mL | % Antigen detection [3]: 61.9%

B3: mask peptide M3 (peptide)
peptide: CTMPPSPRSKVIC
notes: as for B1
binding result (anti-PTK7 antibody Ab181): binds

B4: mask peptide M9 (peptide)
peptide: CHIGKRPVPCLWI
notes: as for B1
binding result (anti-PTK7 antibody Ab181): binds

B5: mask peptide M14 (peptide)
peptide: CTHVAQWAIKAFC
notes: as for B1
binding result (anti-PTK7 antibody Ab181): binds

B6: mask peptide M8 (peptide)
peptide: WCTIPSSMSIRLC
notes: as for B1
binding result (anti-PTK7 antibody Ab181): binds

B7: mask peptide M11 (peptide)
peptide: CTMPSHAVASFLC
notes: as for B1
binding result (anti-PTK7 antibody Ab181): binds

B8: mask peptide M10 (peptide)
peptide: CYIGLRMVPCFHM
notes: as for B1
binding result (anti-PTK7 antibody Ab181): binds

B9: mask peptide M12 (peptide)
peptide: CTMPVHTYSQWLC
notes: as for B1
binding result (anti-PTK7 antibody Ab181): binds

B10: mask peptide M13 (peptide)
peptide: CTYPPRFHMHWLC
notes: as for B1
binding result (anti-PTK7 antibody Ab181): binds

B11: mask peptide M5 (peptide)
peptide: CTYPSWVAYIRFC
notes: as for B1
binding result (anti-PTK7 antibody Ab181): binds

B12: CTX181.M5 (other)
chain: QGCTYPSWVAYIRFCGSSGGSGGSGGSGGGPLGLAGGSSGQVQLVESGGGVVQPGRSLRLSCAASGFTFSSYGMHWVRQAPGKGLEWVAVIWDDGSNKYYVDSVKGRFTISRDNSKNTLYLQMNSLRAEDTAVYYCARDDYYGSGSFNSYYGTDVWGQGTTVTVSSGGGGSGGGGSGGGGSEIVLTQSPATLSLSPGERATLSCRASQSVSIYLAWYQQKPGQAPRLLIYDASNRATGIPARFSGSGSGTDFTLTISSLEPEDFAVYYCQQRSNWPPFTFGPGTKVDIKSAAAFVPVFLPAKPTTTPAPRPPTPAPTIASQPLSLRPEACRPAAGGAVHTRGLDFACDIYIWAPLAGTCGVLLLSLVITLYCNHRNRSKRSRLLHSDYMNMTPRRPGPTRKHYQPYAPPRDFAAYRSRVKFSRSADAPAYQQGQNQLYNELNLGRREEYDVLDKRRGRDPEMGGKPRRKNPQEGLYNELQKDKMAEAYSEIGMKGERRRGKGHDGLYQGLSTATKDTYDALHMQALPPR
notes: Masked chimeric antigen receptor on the surface of TRAC-/B2M- human T cells; entry without signal peptide
% Cell killing at E:T = 1:0.5 [1]: 29.6% | % Cell killing at E:T = 1:1 [1]: -0.8% | IFNγ (pg/mL) at E:T = 1:0.5 [2]: 523 pg/mL | IFNγ (pg/mL) at E:T = 1:1 [2]: 459 pg/mL | % Antigen detection [3]: 18.5%

B13: CTX181.M3 (other)
chain: QGCTMPPSPRSKVICGSSGGSGGSGGSGGGPLGLAGGSSGQVQLVESGGGVVQPGRSLRLSCAASGFTFSSYGMHWVRQAPGKGLEWVAVIWDDGSNKYYVDSVKGRFTISRDNSKNTLYLQMNSLRAEDTAVYYCARDDYYGSGSFNSYYGTDVWGQGTTVTVSSGGGGSGGGGSGGGGSEIVLTQSPATLSLSPGERATLSCRASQSVSIYLAWYQQKPGQAPRLLIYDASNRATGIPARFSGSGSGTDFTLTISSLEPEDFAVYYCQQRSNWPPFTFGPGTKVDIKSAAAFVPVFLPAKPTTTPAPRPPTPAPTIASQPLSLRPEACRPAAGGAVHTRGLDFACDIYIWAPLAGTCGVLLLSLVITLYCNHRNRSKRSRLLHSDYMNMTPRRPGPTRKHYQPYAPPRDFAAYRSRVKFSRSADAPAYQQGQNQLYNELNLGRREEYDVLDKRRGRDPEMGGKPRRKNPQEGLYNELQKDKMAEAYSEIGMKGERRRGKGHDGLYQGLSTATKDTYDALHMQALPPR
% Cell killing at E:T = 1:0.5 [1]: 39% | % Cell killing at E:T = 1:1 [1]: 17.8% | IFNγ (pg/mL) at E:T = 1:0.5 [2]: 833 pg/mL | IFNγ (pg/mL) at E:T = 1:1 [2]: 799 pg/mL

B14: CTX181.M12 (other)
chain: QGCTMPVHTYSQWLCGSSGGSGGSGGSGGGPLGLAGGSSGQVQLVESGGGVVQPGRSLRLSCAASGFTFSSYGMHWVRQAPGKGLEWVAVIWDDGSNKYYVDSVKGRFTISRDNSKNTLYLQMNSLRAEDTAVYYCARDDYYGSGSFNSYYGTDVWGQGTTVTVSSGGGGSGGGGSGGGGSEIVLTQSPATLSLSPGERATLSCRASQSVSIYLAWYQQKPGQAPRLLIYDASNRATGIPARFSGSGSGTDFTLTISSLEPEDFAVYYCQQRSNWPPFTFGPGTKVDIKSAAAFVPVFLPAKPTTTPAPRPPTPAPTIASQPLSLRPEACRPAAGGAVHTRGLDFACDIYIWAPLAGTCGVLLLSLVITLYCNHRNRSKRSRLLHSDYMNMTPRRPGPTRKHYQPYAPPRDFAAYRSRVKFSRSADAPAYQQGQNQLYNELNLGRREEYDVLDKRRGRDPEMGGKPRRKNPQEGLYNELQKDKMAEAYSEIGMKGERRRGKGHDGLYQGLSTATKDTYDALHMQALPPR
% Cell killing at E:T = 1:0.5 [1]: 29.5% | % Cell killing at E:T = 1:1 [1]: 18.5% | IFNγ (pg/mL) at E:T = 1:0.5 [2]: 2420 pg/mL | IFNγ (pg/mL) at E:T = 1:1 [2]: 1770 pg/mL

B15: CTX181.M9 (other)
chain: QGCHIGKRPVPCLWIGSSGGSGGSGGSGGGPLGLAGGSSGQVQLVESGGGVVQPGRSLRLSCAASGFTFSSYGMHWVRQAPGKGLEWVAVIWDDGSNKYYVDSVKGRFTISRDNSKNTLYLQMNSLRAEDTAVYYCARDDYYGSGSFNSYYGTDVWGQGTTVTVSSGGGGSGGGGSGGGGSEIVLTQSPATLSLSPGERATLSCRASQSVSIYLAWYQQKPGQAPRLLIYDASNRATGIPARFSGSGSGTDFTLTISSLEPEDFAVYYCQQRSNWPPFTFGPGTKVDIKSAAAFVPVFLPAKPTTTPAPRPPTPAPTIASQPLSLRPEACRPAAGGAVHTRGLDFACDIYIWAPLAGTCGVLLLSLVITLYCNHRNRSKRSRLLHSDYMNMTPRRPGPTRKHYQPYAPPRDFAAYRSRVKFSRSADAPAYQQGQNQLYNELNLGRREEYDVLDKRRGRDPEMGGKPRRKNPQEGLYNELQKDKMAEAYSEIGMKGERRRGKGHDGLYQGLSTATKDTYDALHMQALPPR
notes: as for B12
% Antigen detection [3]: 35.1%

B16: mask peptide M6 (peptide)
peptide: VCTYPPAHRTRFC
notes: as for B1
binding result (anti-PTK7 antibody Ab181): binds

B17: mask peptide M7 (peptide)
peptide: CTMPYHIHSIGLC
notes: as for B1
binding result (anti-PTK7 antibody Ab181): binds

Source: patent US20210347913A1 (CRISPR THERAPEUTICS, published 2021)
